Key:
[1] = target: Epstein-Barr virus BHRF1 a.a. 1-161 with C-terminal avi-6his tag (Epstein-Barr virus); test: crystal structure PDB 2WH6 of Bim-BH3 bound to BHRF1; solvent-accessible surface buried in the complex
[2] = target: Epstein-Barr virus BHRF1 a.a. 1-161 with C-terminal avi-6his tag (Epstein-Barr virus)
[3] = target: Epstein-Barr virus BHRF1 a.a. 1-161 with C-terminal avi-6his tag (Epstein-Barr virus); remark: listed apart in the source

Bim-BH3 (peptide), sequence (O43521 141-166): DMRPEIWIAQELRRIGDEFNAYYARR

In the case of Bim-BH3 (peptide), the Total buried SASA [1] is reported as 2000 Å2, the buried contact surface on BHRF1 [2] is reported as 908 Å2 and the buried contact surface on Bim-BH3 [3] is reported as 1100 Å2.

Source: patent US20160376333A1
